# Positions count from the first letter of the chain named. Names may count otherwise.
# B1: N351D: mutant OASA2 protein, substitution of asparatate residue for asparagine residue at position 351 (protein, UniProt Q9XJ29 50-606, looked up, variant N351D)
# Anthranilate synthase alpha …: CSAGKPEASAVINGSAAARAAEEDRRRFFEAAERGSGKGNLVPMWECIVSDHLTPVLAYRCLVPEDNMETPSFLFESVEQGPEGTTNVGRYSMVGAHPVMEVVAKEHKVTIMDHEKGKVTEQVVDDPMQIPRSMMEGWHPQQIDQLPDSFTGGWVGFFSYDTVRYVEKKKLPFSGAPQDDRNLPDVHLGLYDDVLVFDNVEKKVYVIHWVNLDRHATTEDAFQDGKSRLNLLLSKVHNSNVPKLSPGFVKLHTRQFGTPLNKSTMTSDEYKNAVMQAKEHIMAGDIFQIVLSQRFERRTYADPFEVYRALRIVNPSPYMAYVQARGCVLVASSPEILTRVRKGKIINRPLAGTVRRGKTEKEDEMQEQQLLSDEKQCAEHIMLVDLGRNDVGKVSKPGSVKVEKLMNIERYSHVMHISSTVSGELDDHLQSWDALRAALPVGTVSGAPKVKAMELIDELEVTRRGPYSGGLGGISFDGDMLIALALRTIVFSTAPSHNTMYSYKDTERRREWVAHLQAGAGIVADSSPDDEQRECENKAAALARAIDLAESAFVDKE
# B2: L530D: mutant OASA2 protein, substitution of asparatate residue for leucine residue at position 530 (protein, UniProt Q9XJ29 50-606, looked up, variant L530D)
# Anthranilate synthase alpha …: B1 Anthranilate synthase alpha … with D302N, L481D
# B3: L530A: mutant OASA2 protein, substitution of alanine residue for leucine residue at position 530 (protein, UniProt Q9XJ29 50-606, looked up, variant L530A)
# Anthranilate synthase alpha …: B1 Anthranilate synthase alpha … with D302N, L481A
# B4: Wt: wild type rice anthranilate synthase encoded by rice anthranilate synthase gene OASA2 (SEQ ID NO: 1) (protein, listed as Oryza sativa)
# chain: MESIAAATFTPSRLAARPATPAAAAAPVRARAAVAAGGRRRTSRRGGVRCSAGKPEASAVINGSAAARAAEEDRRRFFEAAERGSGKGNLVPMWECIVSDHLTPVLAYRCLVPEDNMETPSFLFESVEQGPEGTTNVGRYSMVGAHPVMEVVAKEHKVTIMDHEKGKVTEQVVDDPMQIPRSMMEGWHPQQIDQLPDSFTGGWVGFFSYDTVRYVEKKKLPFSGAPQDDRNLPDVHLGLYDDVLVFDNVEKKVYVIHWVNLDRHATTEDAFQDGKSRLNLLLSKVHNSNVPKLSPGFVKLHTRQFGTPLNKSTMTSDEYKNAVMQAKEHIMAGDIFQIVLSQRFERRTYANPFEVYRALRIVNPSPYMAYVQARGCVLVASSPEILTRVRKGKIINRPLAGTVRRGKTEKEDEMQEQQLLSDEKQCAEHIMLVDLGRNDVGKVSKPGSVKVEKLMNIERYSHVMHISSTVSGELDDHLQSWDALRAALPVGTVSGAPKVKAMELIDELEVTRRGPYSGGLGGISFDGDMLIALALRTIVFSTAPSHNTMYSYKDTERRREWVAHLQAGAGIVADSSPDDEQRECENKAAALARAIDLAESAFVDKE
# Tests used:
# [1] = test system: rice anthranilate synthase (OASA2 protein); test: Enzyme Activity Measurement 1: anthranilate synthase activity with 100 mM NH4Cl as amide group donating substrate; format: biochemical; details: without tryptophan, FIG. 1 and FIG. 2
# Experimental: (§1) The OASA2 protein synthesized by the wheat embryo acellular system was quantified using rabbit anti-OASA2 antibody that had been prepared based on the peptide fragment with the sequence at position 161 to 175 (MDHEKGKVTEQVVDD) of the amino acid sequence of OASA2 protein. A refined sample of OASA2 protein was also used for the quantification. Western blot analysis was performed according to the method of Towbin et al. (Towbin, H., Staehelin, T. and Gordon, J. 1979. Electrophoretic transfer of proteins from polyacrylamide gels to nitrocellulose sheets: procedure and some applications. Proc Natl Acad Sci USA 76: 4350-4354). The estimated quantity of OASA2 protein was used for the correction of enzyme activity, as will be described later.
# The OASA2 protein, which is the α subunit of rice anthranilate synthase catalyzes the reaction producing anthranilate from chorismate, using ammonia that originates in the amide group of glutamine supplied by the β subunit.
# (§2) As is known, activity of OASA2 protein is under the feedback inhibition by tryptophan. It is therefore necessary to eliminate tryptophan in the protein synthesis reaction mixture, and replace the environment of the expressed protein with a buffer component for AS activity measurement. To this end, the protein synthesis reaction mixture was replaced with buffer A (50 mM Tris-HCl, pH7.6; 0.05 mM EDTA; 2 mM MgCl2; 0.05 mM DTT; 5% glycerol), using Microspin G-25 columns (Amersham Biosciences)<
# (§3) Ninety μl of reaction solution (20 mM Tris-HCl, pH 8.3; 100 mM NH4Cl; 0.5 mM chorismate; 10 mM MgCl2) was supplemented with 2.5 μl of crude extract exchanged with buffer, and the reaction mixture was allowed to react for 1 hour at 32° C. The reaction was stopped by adding 10 μl of 1N HCl, and synthesized anthranilate was extracted with 300 μl of ethyl acetate. The yield of anthranilate was measured with Wallac 1420 ARVOsx-FL (Perkin-Elmer Life Sciences Japan. Co., Ltd.) at the excitation wavelength of 355 nm/fluorescence (emission) 460 nm. […]
# [2] = test system: rice anthranilate synthase (OASA2 protein); test: Enzyme Activity Measurement 2: anthranilate synthase activity in reaction system using the β subunit of rice anthranilate synthase (glutamine); format: biochemical
# Experimental: as §1, §2
# as §3, with “5” for “100”, “glutamine; 0.2 to 0.8” for “NH4Cl; 0.5”, “C. The preparation of rice anthranilate synthase β subunit and quantification of the product by the Western blot method were performed according to the method of Kanno et al. (Kanno et al. (2004) Plant Molecular Biology 54, 11-22)” for “C.”
# [3] = test system: Yeast TRP2 gene defective mutant strains; test: Free tryptophan content in yeast TRP2 gene defective mutant strains expressing OASA2 gene; format: cell-based
# Source text: Yeasts with a defective TRP2 gene, analogous to OASA2 gene, require tryptophan for growth. It can therefore be said that TRP2 activity is complemented by OASA2 gene if OASA2 gene introduced into the yeast allows for growth without tryptophan. Further, the activity of mutant OASA2 gene can be assayed by causing the yeast to express the mutant OASA2 gene having resistance to tryptophan feedback inhibition and by measuring accumulation of free tryptophan in the organism.
# Expression vectors were constructed by performing PCR with the primers below. […] As described above, the N terminus region of the OASA2 protein includes a chloroplast transit signal, and as such the primers were designed to exclude the signal sequence in the product of expression, as in the Split-PCR primers described in Section (2) above. […]
# The yeast transformant was separated into single colonies on synthetic complete agar medium (0.67% amino acid-less bactoyeast nitrogen base, uracil-free 0.2% dropout mixture, 2% bactoagar) supplemented with 2% glucose. […] The preparation was then applied to a high-performance liquid chromatography (HPLC) device (the product of Waters, Waters Alliance HPLC FLD System 2695) and free tryptophan content was measured. For HPLC, a Xterra RP18 column (4.6×150 mm) (Waters) was used, and detection of tryptophan was made at the excitation wavelength 278 nm/fluorescence wavelength 348 nm.
molecule,measurement,setting,value
B1,enzyme activity (anthranilate yield) compared with wild type,[1],improved enzyme activity over the wild type
B2,enzyme activity (anthranilate yield) compared with wild type,[1],improved enzyme activity over the wild type
B3,enzyme activity (anthranilate yield) compared with wild type,[1],improved enzyme activity over the wild type
B4,Relative Ratio (enzyme activity compared with the wild type),[2]; Vmax relative to Wt,1.00 fold
same,enzyme activity with tryptophan relative to 100% enzyme activity without tryptophan,"[2]; tryptophan 50 μM, FIG. 3",below 10%
same,Vmax,"[2]; with β subunit, 5 mM glutamine, 0.2 to 0.8 mM chorismate",215 nmol/min/mg OASA2 Protein
same,Relative Amount,[3]; free tryptophan relative to yeast expressing Wt OASA2 gene,1.0 fold
same,Free Tryptophan Content,"[3]; yeast transformant, galactose medium without tryptophan, 30° C., 2 days",126 ± 7 pmol/mg wet weight

# Reference: patent US20080134370A1, “Novel Altered Gene from Rice Anthranilic Acid Synthase Gene Oasa2 and Use Thereof” (priority 2005, published 2008)
